Among the targets are … analog, Residue 3 = K; … analog, Residue 1 = R; … analog, Residue 1 = V; … analog, Residue 1 = H.
Holding throughout (assay): rNET

Take murine monoclonal antibody 3D6: the OD with … analog, Residue 3 = K amounted to 0.053 OD; in the test with … analog, Residue 1 = R it was 0.056 OD; with … analog, Residue 1 = V, 0.057 OD; in the test with … analog, Residue 1 = H it was 0.054 OD.

The values are drawn from patent US20040087777A1.
